{"source": "patent US20200369765A1", "about": "(INNATE PHARMA, published 2020)", "data": [{"molecular_target": "T1, Human Siglec-9 (human, UniProt Q9Y336 18-463)", "T1 construct": "On transfected CHO cells; also on YTS and KHYG-1 transfectants, primary NK cells and moDC; also called huSiglec-9; CD329", "T1 sequence (Q9Y336 18-463)": "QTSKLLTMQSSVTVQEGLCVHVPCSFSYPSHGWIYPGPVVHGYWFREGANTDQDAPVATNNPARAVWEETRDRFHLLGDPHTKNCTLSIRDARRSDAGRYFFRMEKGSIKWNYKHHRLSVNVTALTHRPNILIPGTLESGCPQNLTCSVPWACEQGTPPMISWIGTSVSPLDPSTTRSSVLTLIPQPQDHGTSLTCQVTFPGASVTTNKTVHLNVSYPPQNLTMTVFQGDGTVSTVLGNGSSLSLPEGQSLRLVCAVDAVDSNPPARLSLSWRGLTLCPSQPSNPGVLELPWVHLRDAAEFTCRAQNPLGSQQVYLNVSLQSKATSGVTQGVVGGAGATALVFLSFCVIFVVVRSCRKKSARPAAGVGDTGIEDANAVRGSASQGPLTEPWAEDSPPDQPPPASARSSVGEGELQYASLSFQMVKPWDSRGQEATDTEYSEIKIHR", "assay": "flow cytometry, CHO Siglec-9 cells, mean n = 2", "method": "Binding of humanized antibodies was tested on CHO cells transfected with human Siglec-9, in a titration experiment by flow cytometry. Cells were incubated 90 minutes at 37° C. in Staining Buffer (SB) with primary antibodies at 10 ug/ml and a series of dilution of 1:10. They were washed three times with SB, then incubated 30 minutes with a goat F(ab′)² Anti-human IgG (Fc) PE. EC₅₀ values (μg/ml) for Siglec-9 expressing cells are shown below.", "units": {"EC50": "µg/mL"}, "values": [{"binder": "mAbA H1L1 (antibody, V domains shown, constant region not specified) VH: QVQLVQSGAEVKKPGSSVKVSCKASGGTFSSYWMHWVRQAPGQGLEWMGEINPSNGHTNYNEKFESRVTITADESTSTAYMELSSLRSEDTAVYYCANGVESYDFDDALDYWGQGTTVTVSS VL: DIQMTQSPSSLSASVGDRVTITCRASQDINNYLNWYQQKPGKAPKLLIYYTSRLHSGVPSRFSGSGSGTDYTFTISSLQPEDIATYYCQQGNTLPFTFGGGTKVEIK", "EC50": 0.033}, {"binder": "mAbA H0L0 (antibody, V domains shown, constant region not specified) VH: QVQLVQSGAEVKKPGSSVKVSCKASGGTFSSYWMHWVRQAPGQGLEWMGEINPSNGHTNYNEKFESRVTITADESTSTAYMELSSLRSEDTAVYYCARGVESYDFDDALDYWGQGTTVTVSS VL: DIQMTQSPSSLSASVGDRVTITCRASQDINNYLNWYQQKPGKAPKLLIYYTSRLHSGVPSRFSGSGSGTDFTFTISSLQPEDIATYYCQQGNTLPFTFGGGTKVEIK", "EC50": 0.04}, {"binder": "mAbA H0L1 (antibody, V domains shown, constant region not specified) VH: QVQLVQSGAEVKKPGSSVKVSCKASGGTFSSYWMHWVRQAPGQGLEWMGEINPSNGHTNYNEKFESRVTITADESTSTAYMELSSLRSEDTAVYYCARGVESYDFDDALDYWGQGTTVTVSS VL: DIQMTQSPSSLSASVGDRVTITCRASQDINNYLNWYQQKPGKAPKLLIYYTSRLHSGVPSRFSGSGSGTDYTFTISSLQPEDIATYYCQQGNTLPFTFGGGTKVEIK", "EC50": 0.013}, {"binder": "mAbA H0L2 (antibody, V domains shown, constant region not specified) VH: QVQLVQSGAEVKKPGSSVKVSCKASGGTFSSYWMHWVRQAPGQGLEWMGEINPSNGHTNYNEKFESRVTITADESTSTAYMELSSLRSEDTAVYYCARGVESYDFDDALDYWGQGTTVTVSS VL: DIQMTQSPSSLSASVGDRVTITCRASQDINNYLNWYQQKPGKAIKLLIYYTSRLHSGVPSRFSGSGSGTDYTFTISSLQPEDIATYYCQQGNTLPFTFGGGTKVEIK", "EC50": 0.034}, {"binder": "mAbA H1L0 (antibody, V domains shown, constant region not specified) VH: QVQLVQSGAEVKKPGSSVKVSCKASGGTFSSYWMHWVRQAPGQGLEWMGEINPSNGHTNYNEKFESRVTITADESTSTAYMELSSLRSEDTAVYYCANGVESYDFDDALDYWGQGTTVTVSS VL: DIQMTQSPSSLSASVGDRVTITCRASQDINNYLNWYQQKPGKAPKLLIYYTSRLHSGVPSRFSGSGSGTDFTFTISSLQPEDIATYYCQQGNTLPFTFGGGTKVEIK", "EC50": 0.045}, {"binder": "mAbA H1L2 (antibody, V domains shown, constant region not specified) VH: QVQLVQSGAEVKKPGSSVKVSCKASGGTFSSYWMHWVRQAPGQGLEWMGEINPSNGHTNYNEKFESRVTITADESTSTAYMELSSLRSEDTAVYYCANGVESYDFDDALDYWGQGTTVTVSS VL: DIQMTQSPSSLSASVGDRVTITCRASQDINNYLNWYQQKPGKAIKLLIYYTSRLHSGVPSRFSGSGSGTDYTFTISSLQPEDIATYYCQQGNTLPFTFGGGTKVEIK", "EC50": 0.037}, {"binder": "mAbA H2L0 (antibody, V domains shown, constant region not specified) VH: QVQLVQSGAEVKKPGSSVKVSCKASYFTFSSYWMHWVRQAPGQGLEWMGEINPSNGHTNYNEKFESRVTITADESTSTAYMELSSLRSEDTAVYYCANGVESYDFDDALDYWGQGTTVTVSS VL: DIQMTQSPSSLSASVGDRVTITCRASQDINNYLNWYQQKPGKAPKLLIYYTSRLHSGVPSRFSGSGSGTDFTFTISSLQPEDIATYYCQQGNTLPFTFGGGTKVEIK", "EC50": 0.034}, {"binder": "mAbA H2L1 (antibody, V domains shown, constant region not specified) VH: QVQLVQSGAEVKKPGSSVKVSCKASYFTFSSYWMHWVRQAPGQGLEWMGEINPSNGHTNYNEKFESRVTITADESTSTAYMELSSLRSEDTAVYYCANGVESYDFDDALDYWGQGTTVTVSS VL: DIQMTQSPSSLSASVGDRVTITCRASQDINNYLNWYQQKPGKAPKLLIYYTSRLHSGVPSRFSGSGSGTDYTFTISSLQPEDIATYYCQQGNTLPFTFGGGTKVEIK", "EC50": 0.029}, {"binder": "mAbA H2L2 (antibody, V domains shown, constant region not specified) VH: QVQLVQSGAEVKKPGSSVKVSCKASYFTFSSYWMHWVRQAPGQGLEWMGEINPSNGHTNYNEKFESRVTITADESTSTAYMELSSLRSEDTAVYYCANGVESYDFDDALDYWGQGTTVTVSS VL: DIQMTQSPSSLSASVGDRVTITCRASQDINNYLNWYQQKPGKAIKLLIYYTSRLHSGVPSRFSGSGSGTDYTFTISSLQPEDIATYYCQQGNTLPFTFGGGTKVEIK", "EC50": 0.032}, {"binder": "mAbA H3L0 (antibody, V domains shown, constant region not specified) VH: QVQLVQSGAEVKKPGSSVKVSCKASYFTFSSYWMHWVRQAPGQGLEWMGEINPSNGHTNYNEKFESRVTITADRSTSTAYMELSSLRSEDTAVYYCANGVESYDFDDALDYWGQGTTVTVSS VL: DIQMTQSPSSLSASVGDRVTITCRASQDINNYLNWYQQKPGKAPKLLIYYTSRLHSGVPSRFSGSGSGTDFTFTISSLQPEDIATYYCQQGNTLPFTFGGGTKVEIK", "EC50": 0.12}, {"binder": "mAbA H3L1 (antibody, V domains shown, constant region not specified) VH: QVQLVQSGAEVKKPGSSVKVSCKASYFTFSSYWMHWVRQAPGQGLEWMGEINPSNGHTNYNEKFESRVTITADRSTSTAYMELSSLRSEDTAVYYCANGVESYDFDDALDYWGQGTTVTVSS VL: DIQMTQSPSSLSASVGDRVTITCRASQDINNYLNWYQQKPGKAPKLLIYYTSRLHSGVPSRFSGSGSGTDYTFTISSLQPEDIATYYCQQGNTLPFTFGGGTKVEIK", "EC50": 0.044}, {"binder": "mAbA H3L2 (antibody, V domains shown, constant region not specified) VH: QVQLVQSGAEVKKPGSSVKVSCKASYFTFSSYWMHWVRQAPGQGLEWMGEINPSNGHTNYNEKFESRVTITADRSTSTAYMELSSLRSEDTAVYYCANGVESYDFDDALDYWGQGTTVTVSS VL: DIQMTQSPSSLSASVGDRVTITCRASQDINNYLNWYQQKPGKAIKLLIYYTSRLHSGVPSRFSGSGSGTDYTFTISSLQPEDIATYYCQQGNTLPFTFGGGTKVEIK", "EC50": 0.074}, {"binder": "mAbD H1L1 (antibody, V domains shown, constant region not specified) VH: QVQLVQSGSELKKPGASVKVSCKASGYTFTDYSMHWVRQAPGQGLKWMGWIITETGEPTYADDFRGRFVFSLDTSVSTAYLQISSLKAEDTAVYYCARDFDGYWGQGTTVTVSS VL: DIQMTQSPSSLSASVGDRVTITCRASENIYSYLAWYQQKPGKAPKFLIYNAKTLTEGVPSRFSGSGSGTDFTLTISSLQPEDFATYYCQHHYGFPWTFGGGTKVEIK", "EC50": 0.015}, {"binder": "mAbD H0L0 (antibody, V domains shown, constant region not specified) VH: QVQLVQSGSELKKPGASVKVSCKASGYTFTDYSMHWVRQAPGQGLEWMGWIITETGEPTYADDFRGRFVFSLDTSVSTAYLQISSLKAEDTAVYYCARDFDGYWGQGTTVTVSS VL: DIQMTQSPSSLSASVGDRVTITCRASENIYSYLAWYQQKPGKAPKLLIYNAKTLTEGVPSRFSGSGSGTDFTLTISSLQPEDFATYYCQHHYGFPWTFGGGTKVEIK", "EC50": 0.019}, {"binder": "mAbD H0L1 (antibody, V domains shown, constant region not specified) VH: QVQLVQSGSELKKPGASVKVSCKASGYTFTDYSMHWVRQAPGQGLEWMGWIITETGEPTYADDFRGRFVFSLDTSVSTAYLQISSLKAEDTAVYYCARDFDGYWGQGTTVTVSS VL: DIQMTQSPSSLSASVGDRVTITCRASENIYSYLAWYQQKPGKAPKFLIYNAKTLTEGVPSRFSGSGSGTDFTLTISSLQPEDFATYYCQHHYGFPWTFGGGTKVEIK", "EC50": 0.01}, {"binder": "mAbD H0L2 (antibody, V domains shown, constant region not specified) VH: QVQLVQSGSELKKPGASVKVSCKASGYTFTDYSMHWVRQAPGQGLEWMGWIITETGEPTYADDFRGRFVFSLDTSVSTAYLQISSLKAEDTAVYYCARDFDGYWGQGTTVTVSS VL: DIQMTQSPSSLSASVGDRVTITCRASENIYSYLAWYQQKPGKAPKFLIYNAKTLTEGVPSRFRGSGSGTDFTLTISSLQPEDFATYYCQHHYGFPWTFGGGTKVEIK", "EC50": 0.02}, {"binder": "mAbD H1L0 (antibody, V domains shown, constant region not specified) VH: QVQLVQSGSELKKPGASVKVSCKASGYTFTDYSMHWVRQAPGQGLKWMGWIITETGEPTYADDFRGRFVFSLDTSVSTAYLQISSLKAEDTAVYYCARDFDGYWGQGTTVTVSS VL: DIQMTQSPSSLSASVGDRVTITCRASENIYSYLAWYQQKPGKAPKLLIYNAKTLTEGVPSRFSGSGSGTDFTLTISSLQPEDFATYYCQHHYGFPWTFGGGTKVEIK", "EC50": 0.019}, {"binder": "mAbD H1L2 (antibody, V domains shown, constant region not specified) VH: QVQLVQSGSELKKPGASVKVSCKASGYTFTDYSMHWVRQAPGQGLKWMGWIITETGEPTYADDFRGRFVFSLDTSVSTAYLQISSLKAEDTAVYYCARDFDGYWGQGTTVTVSS VL: DIQMTQSPSSLSASVGDRVTITCRASENIYSYLAWYQQKPGKAPKFLIYNAKTLTEGVPSRFRGSGSGTDFTLTISSLQPEDFATYYCQHHYGFPWTFGGGTKVEIK", "EC50": 0.019}, {"binder": "mAbD H2L0 (antibody, V domains shown, constant region not specified) VH: QVQLVQSGSELKKPGASVKVSCKASGYTFTDYSMHWVRQAPGQGLKWMGWIITETGEPTYADDFRGRFVFSLDTSVSTAYLQISSLKAEDTAVYFCARDFDGYWGQGTTVTVSS VL: DIQMTQSPSSLSASVGDRVTITCRASENIYSYLAWYQQKPGKAPKLLIYNAKTLTEGVPSRFSGSGSGTDFTLTISSLQPEDFATYYCQHHYGFPWTFGGGTKVEIK", "EC50": 0.03}, {"binder": "mAbD H2L1 (antibody, V domains shown, constant region not specified) VH: QVQLVQSGSELKKPGASVKVSCKASGYTFTDYSMHWVRQAPGQGLKWMGWIITETGEPTYADDFRGRFVFSLDTSVSTAYLQISSLKAEDTAVYFCARDFDGYWGQGTTVTVSS VL: DIQMTQSPSSLSASVGDRVTITCRASENIYSYLAWYQQKPGKAPKFLIYNAKTLTEGVPSRFSGSGSGTDFTLTISSLQPEDFATYYCQHHYGFPWTFGGGTKVEIK", "EC50": 0.016}, {"binder": "mAbD H2L2 (antibody, V domains shown, constant region not specified) VH: QVQLVQSGSELKKPGASVKVSCKASGYTFTDYSMHWVRQAPGQGLKWMGWIITETGEPTYADDFRGRFVFSLDTSVSTAYLQISSLKAEDTAVYFCARDFDGYWGQGTTVTVSS VL: DIQMTQSPSSLSASVGDRVTITCRASENIYSYLAWYQQKPGKAPKFLIYNAKTLTEGVPSRFRGSGSGTDFTLTISSLQPEDFATYYCQHHYGFPWTFGGGTKVEIK", "EC50": 0.021}]}]}
